Laboratory results: patent US12460006B2, “Antibodies against integrin alpha 11 beta 1” (Momenta Pharmaceuticals, Inc., priority 2019, dated 2025)
Where a chain is given by its changes, count along the chain named. “Also recorded” adds a separate entry of the source.

T1: I domain of α11β1 (Homo sapiens, UniProt Q9UKX5)
T1 construct: An in-house generated I domain of α11β1 was used; made in house
T1 sequence (Q9UKX5 164-345 limits assumed): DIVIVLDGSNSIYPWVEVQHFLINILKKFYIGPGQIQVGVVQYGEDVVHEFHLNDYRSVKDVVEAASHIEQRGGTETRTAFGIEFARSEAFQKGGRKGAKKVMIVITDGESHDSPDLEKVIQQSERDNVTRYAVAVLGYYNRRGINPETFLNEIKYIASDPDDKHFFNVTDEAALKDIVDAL

B1: 79E3E3: rat anti-α11β1 mAb; VH SEQ ID NO: 145, VL SEQ ID NO: 146 (antibody, V domains shown)
VH: MDWLWNLLFLMVVAQSAQAQIQLVQSGPEVKKPGESVKISCKASGYTFTDYAMNWVKQAPGNGLKWMGWINTQTGKPTYADDFKQRFVFSLETSARTTYLQINNLNIEDTATYFCTRLGTGNTKGFAYWGQGTLVTVSS
VL: MESQTHVLISLLLCVSGTCGDILINQSPASLTVSAGERVTMSCKSSQSLLYSENNQDYLAWYQQKPGQFPKLLIYGASNRHTGVPDRFTGSGSGTDFTLTISSVQAEDLADYYCEQTYRYPFTFGSGTKLEIK
B2: 8H8E9: rat anti-α11β1 mAb; VH SEQ ID NO: 149, VL SEQ ID NO: 150 (antibody, V domains shown)
VH: MAVLVLLLCLVTFPSCALSQVQLKESGPGLVQPSQTLSLTCTVSGFSLTSNSVSWVRQAPGKGLEWMGAIWSGGSTDYNSALKSRLSISRDTSKSQVFLKMNSLQTEDTAIYFCTRSHWEPFDYWGQGVMVTVSS
VL: MESQTQALISLLLWVYGTCGDIVMTQSPFSLAVSEGEMVTINCKSSQGLLSSGNQKNYLAWYQQRPGQSPKLLIYYASTRQSGVPDRFIGGGSGTDFTLTISDVQAEDLADYYCLQHYSYPPTFGSGTKLEIK
B3: 6E5C11: rat anti-α11β1 mAb; VH SEQ ID NO: 151, VL SEQ ID NO: 152 (antibody, V domains shown)
VH: B2 VH with K24R, S54T, A59P, G73D, A81T, N102S
VL: B2 VL with F29L, M38T, I41M, G48S, L50F, R65K, G91S, A106T, S119N
B4: 8-P20: mouse anti-α11β1 mAb; VH SEQ ID NO: 105, VL SEQ ID NO: 106 (antibody, V domains shown)
VH: KVMLVESGGALVKPGGSLKLSCVASGFTFSNYAMSWVRQTPEKRLEWVATISSGGYYTYYPDSVKGRFTISRDNARNTLFLQMSSLRSEDTAMFYCAREDDYGRYSYTMDYWGQGTSVTVSS
VL: DVVMTQTPLSLPVSLGDQVSISCRCSQSLVHSNGNTYLHWYLQKPGQSPQLLIYKISNRFSGVPDRFSGSGSGTDFTLKISRVEAEDLGVYFCSQSTHVPYTFGGGTELEIK
B5: 40G10H11: rat anti-α11β1 mAb; VH SEQ ID NO: 157, VL SEQ ID NO: 158 (antibody, V domains shown)
VH: MDIRLSLGFLVLFIKGDQCAVQLVESGGGLVQPGRSLKLSCAASRITFTDYYMAWVRQAPTKGLEWVATISSDGGDTFYRDSVKGRFTISRDNAKSTLYLQMVSLRSEDTATYYCSTDRGAQFGYWGQGTLVTVSS
VL: MAPVQLLGLLLIWLPAMRCDIQMTQSPSFLSASVGDRVSINCKASQNVHENLNWYQQKLGEAPKRLIYNTNNLQTGIPSRFSGSGSGADYTLTISSLQPEDFATYFCLQHNAFPYTFGPGTKLELK
B6: 18E10F10: rat anti-α11β1 mAb; VH SEQ ID NO: 155, VL SEQ ID NO: 156 (antibody, V domains shown)
VH: MDIRLSLVFLVLFMKGVQCEVQLVESGGGLVQPGRSLKLSCAASRFTFSDYNMAWVRQAPKKGLEWVATIYHDDSGSYYRDSVKGRFTISRNNAKSTLYLQMDSLRSEDMATYYCARHNNGFDYWGQGVMVTVAS
VL: MKWPVRLLVLFFWIPASGGDVVMTQTPVSLPVRLGGQASISCRSSQSLVHSNGNTYLHWYLQKPGQSPQLLINRVSNRFSGVPDRFSGSGSGTDFTLKINRVEPEDLGDYYCLQSTHFPLTFGSGTKLETK

What was measured:
mouse α11β1 = mouse α11β1 (Mus musculus, UniProt P61622); test: ELISA binding to recombinant mouse α11β1; conditions: for Murine α11β1 ELISA: binding Yes/No
mouse α11β1, sequence (P61622 23-1141 limits assumed): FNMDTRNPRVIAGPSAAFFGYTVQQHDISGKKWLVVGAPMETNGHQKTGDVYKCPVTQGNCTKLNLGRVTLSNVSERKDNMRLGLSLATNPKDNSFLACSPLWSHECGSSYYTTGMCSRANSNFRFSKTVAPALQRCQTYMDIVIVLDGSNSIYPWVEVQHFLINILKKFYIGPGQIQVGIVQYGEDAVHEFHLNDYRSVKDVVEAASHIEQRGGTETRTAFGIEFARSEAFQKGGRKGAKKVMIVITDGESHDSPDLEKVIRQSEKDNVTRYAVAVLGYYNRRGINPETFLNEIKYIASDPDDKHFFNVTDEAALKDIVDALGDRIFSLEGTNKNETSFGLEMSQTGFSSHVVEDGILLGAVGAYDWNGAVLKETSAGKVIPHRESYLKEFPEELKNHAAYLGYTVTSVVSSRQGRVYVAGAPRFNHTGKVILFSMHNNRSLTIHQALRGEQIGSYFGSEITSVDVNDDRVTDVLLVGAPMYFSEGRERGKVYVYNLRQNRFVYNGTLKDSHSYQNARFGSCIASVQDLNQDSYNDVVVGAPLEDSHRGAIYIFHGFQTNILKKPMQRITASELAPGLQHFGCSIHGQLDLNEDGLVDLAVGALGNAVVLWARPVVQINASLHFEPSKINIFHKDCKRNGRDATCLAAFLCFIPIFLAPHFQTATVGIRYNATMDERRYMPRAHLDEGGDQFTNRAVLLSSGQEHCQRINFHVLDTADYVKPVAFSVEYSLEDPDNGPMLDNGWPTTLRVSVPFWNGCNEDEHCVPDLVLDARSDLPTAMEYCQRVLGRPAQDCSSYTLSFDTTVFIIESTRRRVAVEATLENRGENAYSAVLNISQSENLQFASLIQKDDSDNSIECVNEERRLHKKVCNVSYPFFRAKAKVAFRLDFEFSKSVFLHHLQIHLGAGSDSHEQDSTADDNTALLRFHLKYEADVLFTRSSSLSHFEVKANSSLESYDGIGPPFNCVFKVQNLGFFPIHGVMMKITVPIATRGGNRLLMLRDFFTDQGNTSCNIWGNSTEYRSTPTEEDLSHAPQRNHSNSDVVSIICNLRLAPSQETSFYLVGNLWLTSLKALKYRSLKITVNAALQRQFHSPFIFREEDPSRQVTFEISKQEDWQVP
mouse α11β1, sequence (P09055 21-728 partner limits assumed): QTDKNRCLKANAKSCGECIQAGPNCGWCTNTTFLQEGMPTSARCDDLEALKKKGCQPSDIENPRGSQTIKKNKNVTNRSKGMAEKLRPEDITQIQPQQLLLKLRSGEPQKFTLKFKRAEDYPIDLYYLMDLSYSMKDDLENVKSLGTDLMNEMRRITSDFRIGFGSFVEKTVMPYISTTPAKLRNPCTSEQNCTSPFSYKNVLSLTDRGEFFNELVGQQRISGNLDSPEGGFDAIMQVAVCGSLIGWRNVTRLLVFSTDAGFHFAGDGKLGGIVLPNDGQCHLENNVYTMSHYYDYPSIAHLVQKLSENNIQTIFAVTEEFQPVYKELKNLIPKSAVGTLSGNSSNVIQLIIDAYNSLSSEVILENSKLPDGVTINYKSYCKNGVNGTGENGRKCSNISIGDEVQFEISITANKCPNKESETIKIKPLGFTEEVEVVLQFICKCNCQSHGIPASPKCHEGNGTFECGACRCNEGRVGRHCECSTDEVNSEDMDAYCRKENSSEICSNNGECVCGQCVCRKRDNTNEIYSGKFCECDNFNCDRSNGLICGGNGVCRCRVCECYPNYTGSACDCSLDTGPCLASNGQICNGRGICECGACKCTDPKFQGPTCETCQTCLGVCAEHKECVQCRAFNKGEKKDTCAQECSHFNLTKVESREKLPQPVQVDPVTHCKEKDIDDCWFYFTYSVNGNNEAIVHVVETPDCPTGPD
Experimental: (§1) 0.25 μg/mL of target antigen (recombinant human or mouse α11β1) was plated in a 96-well plate over night at 4° C. Plates were washed (PBS with 0.1% Tween-20), blocked (PBS with 2% BSA and 0.05% Tween-20) for 1 hour at room temperature and incubated with a range of antibody concentrations for 1 hour at room temperature. Subsequently, plates were washed and incubated with biotinylated anti-rabbit/mouse/human IgG in a 1:1000 dilution buffer and incubated for 1 hour at room temperature. After washing the plates, Streptavidin HRP was added at 1:200 in dilution buffer and incubated for 1 hour at room temperature. Ultra TMB ELISA substrate solution was added and the plates incubated for 5 minutes on a plate shaker. The reaction was stopped by adding stop solution to each well and plates were read at 450 nm.

myofibroblasts (MF) = test: FACS antibody binding to myofibroblasts; design: species or system human; conditions: binding Yes/No
Experimental: Human Pulmonary Fibroblasts (ScienCell) were cultured in complete Fibroblast Growth Medium (ScienCell) until 80% confluent in T-150 flasks. Cells were washed and harvested using Accutase. Cells were seeded into T-150 flasks at 7,500 cells/cm^2 in complete FGF and cultured for 72 hours. Cells were then washed and starved in serum reduced medium for 24 hours. After starvation, cells were treated with TGFβ-1 (R&D Systems) for 72 hours. Cells were harvested using Accutase and seeded in 96-well conical bottom plates. Cells were blocked with Heat Inactived Fetal Bovine Serum (Gibco) for 30 minutes at 4° C. Cells were then incubated with anti-α11 antibodies at the doses described in each figure for 30 minutes at 4° C. A human anti-α11 antibody (Creative BioLabs) was included as a positive control as well as the appropriate IgG isotype negative controls. Cells were washed twice and incubated with PE conjugated secondary antibodies specific to the IgG class of the anti-α11 antibodies being tested for 30 minutes at 4° C. Cells were washed twice and fixed in 1% PFA for 30 minutes. Cells were acquired on a FACS Verse […]. Data were analyzed by gating on single cells and determining the geometric Mean Fluorescence Intensity (gMFI) in the PE channel for each sample.
Binding to a physiologically relevant primary human cell type was also tested. Human pulmonary fibroblasts (HPF) and TGFβ treatment were used to induce a fibroblast-to-myofibroblast transition (FMT), giving rise to myofibroblasts (MF). […] Additionally, HPFs express α11 and α2β1, other collagen binding receptors, which means that HPFs can be to test cross-reactivity of antibodies of interest.

[1] = tested on: CHO-K1 cells expressing human α11; test: Cell adhesion inhibition (xCelligence), type I collagen; format: cell-based; conditions: for inhibition of cell adhesion to type I collagen: CHO-K1 hu α11 cells; for Inhibition of CHO-K1 adhesion to collagen: Yes/No
Experimental: 0.6×10^6 cells/mL were incubated with each antibody at a range of concentrations for 20 minutes at 37° C. E-Plate VIEW 96 PET plate coated with 100 ng/mL type I collagen or PBS overnight at room temperature was blocked in 3% BSA for 1 house at room temperature. After washing the plate with PBS, cell and antibody mixture was added to the wells and the plate was places into an xCelligence machine. Cell adhesion was recorded over 6 hours. The time point of maximum cell adhesion was used for comparison relative to control.
A CHO-K1 hu α11 cell line was used to assess the ability of mAbs to block α11β1-mediated binding to type I collagen. […] In the “Untreated” condition, cells were plated on type I collagen but no antibody was added and in the “Uncoated” condition, cells were seeded onto BSA-coated wells containing no type I collagen. Statistics were performed using one-way ANOVA followed by Dunnett's multiple comparisons test. […] Therefore, it is possible that these mAbs bind on an α11β1 domain that keeps the integrin in a low or intermediate affinity state. […] Nine human mAbs were also tested for their ability to inhibit the binding of human CHO-α11 cells to type I collagen.

human α11β1 = human α11β1 (Homo sapiens, UniProt Q9UKX5); test: ELISA binding to recombinant human α11β1; conditions: binding Yes/No
human α11β1, sequence (Q9UKX5 23-1141 limits assumed): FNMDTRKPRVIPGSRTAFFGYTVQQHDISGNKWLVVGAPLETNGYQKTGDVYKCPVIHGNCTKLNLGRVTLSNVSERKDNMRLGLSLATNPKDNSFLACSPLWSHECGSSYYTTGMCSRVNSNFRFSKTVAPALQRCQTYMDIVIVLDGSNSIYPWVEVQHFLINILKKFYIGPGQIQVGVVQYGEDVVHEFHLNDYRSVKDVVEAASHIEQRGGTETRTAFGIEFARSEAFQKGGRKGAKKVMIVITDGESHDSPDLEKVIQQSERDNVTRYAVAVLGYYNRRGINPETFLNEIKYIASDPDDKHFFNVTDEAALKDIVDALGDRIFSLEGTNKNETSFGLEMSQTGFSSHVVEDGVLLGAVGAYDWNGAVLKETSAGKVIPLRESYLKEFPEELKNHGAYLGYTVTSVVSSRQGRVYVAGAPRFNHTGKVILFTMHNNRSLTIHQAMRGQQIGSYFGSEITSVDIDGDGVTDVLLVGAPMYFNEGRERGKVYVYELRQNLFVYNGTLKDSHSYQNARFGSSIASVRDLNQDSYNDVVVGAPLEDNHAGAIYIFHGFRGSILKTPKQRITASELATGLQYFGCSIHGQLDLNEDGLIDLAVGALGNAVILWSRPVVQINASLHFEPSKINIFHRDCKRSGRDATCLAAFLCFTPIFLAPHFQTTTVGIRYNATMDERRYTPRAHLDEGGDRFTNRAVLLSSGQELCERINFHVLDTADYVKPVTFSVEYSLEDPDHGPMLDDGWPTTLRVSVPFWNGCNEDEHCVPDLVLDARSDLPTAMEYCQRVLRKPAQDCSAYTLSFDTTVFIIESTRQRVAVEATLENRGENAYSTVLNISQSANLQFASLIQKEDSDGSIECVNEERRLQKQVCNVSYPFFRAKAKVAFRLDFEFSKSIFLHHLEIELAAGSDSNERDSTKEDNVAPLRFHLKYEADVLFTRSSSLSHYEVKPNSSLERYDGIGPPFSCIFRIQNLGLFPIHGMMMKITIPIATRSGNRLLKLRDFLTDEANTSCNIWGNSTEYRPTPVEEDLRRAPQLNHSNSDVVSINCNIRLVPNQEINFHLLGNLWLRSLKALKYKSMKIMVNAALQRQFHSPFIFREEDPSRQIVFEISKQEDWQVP
human α11β1, sequence (P05556 21-728 partner limits assumed): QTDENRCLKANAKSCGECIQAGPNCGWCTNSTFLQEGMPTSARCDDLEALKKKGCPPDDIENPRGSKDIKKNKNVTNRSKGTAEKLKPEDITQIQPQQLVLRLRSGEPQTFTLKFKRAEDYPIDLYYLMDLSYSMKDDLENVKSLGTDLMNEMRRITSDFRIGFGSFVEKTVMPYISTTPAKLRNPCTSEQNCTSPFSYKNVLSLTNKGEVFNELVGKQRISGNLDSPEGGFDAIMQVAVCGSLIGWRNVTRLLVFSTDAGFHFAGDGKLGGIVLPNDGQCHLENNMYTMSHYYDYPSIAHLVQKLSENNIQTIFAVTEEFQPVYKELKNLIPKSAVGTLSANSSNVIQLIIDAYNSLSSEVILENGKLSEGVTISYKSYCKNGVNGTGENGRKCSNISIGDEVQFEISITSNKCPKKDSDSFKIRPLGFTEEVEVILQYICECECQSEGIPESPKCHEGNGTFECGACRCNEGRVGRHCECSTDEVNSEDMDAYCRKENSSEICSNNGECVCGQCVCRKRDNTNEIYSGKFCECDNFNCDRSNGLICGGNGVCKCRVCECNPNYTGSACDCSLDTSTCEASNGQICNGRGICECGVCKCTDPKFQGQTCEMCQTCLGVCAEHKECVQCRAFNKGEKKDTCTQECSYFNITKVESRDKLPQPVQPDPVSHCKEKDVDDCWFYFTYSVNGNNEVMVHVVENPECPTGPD
Experimental: as §1

[2] = tested on: Human Pulmonary Fibroblasts; test: Fibroblast-to-Myofibroblasts Transition (FMT), αSMA expression; format: cell-based; conditions: for inhibition of αSMA expression / FMT: TGFβ-induced FMT; for Inhibition of FMT: Yes/No
Experimental: Human Pulmonary Fibroblasts (ScienCell) were cultured in complete Fibroblast Growth Medium (ScienCell) until 80% confluent. Cells were washed and harvested using Accutase. Cells were seeded onto tissue culture-treated 96 well plates at 20,000 cells/well in complete Fibroblast Growth Medium. After 24 hours, cells were washed and starved in serum reduced medium for an additional 24 hours. After starvation, cells were treated with TGFβ-1 (R&D Systems) with or without anti-α11 antibodies. A polyclonal rabbit anti-human α11 antibody was used as a positive control. Appropriate IgG isotype controls were also included. After 48 hours, cells were harvested, fixed, permeabilized and stained with AlexaFluor488 Labeled Anti-αSMA (α-smooth muscle actin) (Invitrogen). Cells were acquired on a FACS Verse (Benton Dickson) to determine expression levels of αSMA. Data were analyzed by gating on single cells and determining the geometric Mean Fluorescence Intensity (gMFI) in the FITC channel for each sample. gMFI for each sample was normalized to the untreated control and presented as % inhibition.
In addition to the binding abilities described above, it is important for an anti-α11β1 antibody to inhibit the fibroblast-to-myofibroblast transition (FMT). It is now appreciated that myofibroblasts are a heterogeneous cell population, existing in different activation states, with the main function of producing and contracting collagen extracellular matrix (ECM). FMT is a multi-step event that is controlled by a changing mechanical environment in tissues undergoing repair. TGFβ is one of the potent factors that potentiates this process and alpha smooth muscle actin (αSMA) is one of the main markers that becomes overexpressed when fibroblasts are undergoing the transition to becoming myofibroblasts. The presence of αSMA enhances fibroblast contraction and guides myofibroblast activation through an intracellular feedback loop. Because αSMA is the main molecular marker of myofibroblasts, the ability of the novel anti-α11β1 mAbs to inhibit αSMA expression in TGFβ-induced FMT was tested.

I domain of α11β1 = target: T1, I domain of α11β1; test: ELISA binding to in-house generated I domain of α11β1; conditions: for binding to I domain of α11β1 (high, medium, low): ELISA; for I Domain binding: Yes/No
Experimental: as §1
22 Data was also collected to determine whether antibodies of interest bind to the I domain of α11β1. An in-house generated I domain of α11β1 was used. […] Mouse antibodies 10-F23, 10-L15, 7-O8, 6-A12, 9-G05 and 9-E16 and rabbit antibodies 7-H12 and 2-D3 were also tested for binding against the in-house generated α11031 domain. FIGS. 3A and 3B show graphs illustrating binding data from exemplary mAbs.

Molecule | binding to mouse α11β1 (mouse α11β1) | Murine α11β1 ELISA (mouse α11β1) | MF FACS (myofibroblasts (MF)) | inhibition of cell adhesion to type I collagen [1] | Inhibition of CHO-K1 adhesion to collagen [1] | Human α11β1 ELISA (human α11β1) | inhibition of αSMA expression / FMT [2] | Inhibition of FMT [2] | I-domain binder (I domain of α11β1) | binding to I domain of α11β1 (high, medium, low) (I domain of α11β1) | I Domain binding (I domain of α11β1)
B1 | cross-reacts with mouse α11β1 | Yes | Yes | strongly inhibited cell adhesion | Yes | Yes | failed to decrease αSMA expression | No | found to be an I-domain binder | high | Yes
B2 |  | No |  |  | Yes | Yes |  | Yes |  | medium | No
B3 |  | No |  |  | No | Yes |  | Yes |  | low | No
B4 |  | No | Yes | did not block cell adhesion | No | Yes |  | No |  |  | No
B5 |  | Yes |  | strongly inhibited cell adhesion; also recorded: inhibited cell adhesion | Yes | Yes | significantly inhibited αSMA expression | Yes | not found to be an I-domain binder; also recorded: neither of the antibodies was found to be an I-domain binder |  | No
B6 |  | No |  |  | Yes | Yes |  | Yes |  |  | No
